From the nanobody polyreactivity screen of Harvey et al. (2022) come the findings set out here.

The nature of the data set: yeast display, Sf9 membrane polyspecificity reagent, FACS + sequencing; frameworks hold sequencing errors. In a few lines: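 Using colony PCR, genes from sorted yeast display clones were amplified, then sequenced on MiSeq at 2 × 250 and filtered by CDR length. The clones had been stained with 10% biotinylated, detergent-solubilized Sf9 membrane reagent for 1 hour at 4 °C and sorted by FACS into low and high (top ~1%) gates on anti-HA and streptavidin fluorescence. Polyreactivity labels come from the gate of origin.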
As for “QVQLVESGGGLVQAGGSLRLSCAASGITFKLYAIGWYRQAPGKERELVATINRGSSTYYADSVKGRFTISRDNAKNTVYLQMNSLKPEDTAVYYCAADNVRKWHKMDYWGQGTQVTVSS”, the “polyreactivity (PSR sort gate)” value is on record as “high polyreactivity”.
For “QVQLVESGGGLVQAGGSLRLSCAASGITFKSYTMGWYRQAPGKERELVAAITASGGTTRYADSVKGRFTISRDNAKNTVYLQMNSLKREDTAVYYCNALPFRYGKRRGYWGQGTQVTVSS”, the “polyreactivity (PSR sort gate)” value is recorded as “low polyreactivity”.
With “QVQLVESGGGLVQAGGSLRLSCAASGITFKYYAMGWYRQAPGKERELVAAIRGGRTYYADSVKGRFTISRDNAKNTVYLQMNSLKPEDTAVYYCNARYYQSGIKYNYWGQGTQVTVSS” the entry was “high polyreactivity”; with “QVQLVESGGGLVQAGGSLRLSCAASGITFKYYTMGWYRPAPGKERELVAAITSRAGRTYADSVKGRFTISRDNAKNTVYLQMNSLKPEDTAVYYCDKKWRGNTYLYDYWGQGTQVTVSS”, “high polyreactivity”; with “QVQLVESGGGLVQAGGSLRLSCAASGITFKYYTMGWYRQAPGKERELVAAISRGGSTNYADSVKGRFTISRDNAKNTVYLQMNSLKPEDTAVYYCAVDVPEFWWYRVIYDGYYWGQGTQVTVSS”, “high polyreactivity”.
With “QVQLVESGGGLVQAGGSLRLSCAASGITFKYYTMGWYRQAPGKERELVASINNDGSTYYADSVKGRFTISRDNAKNTVYFQMNSLKPEDTAVYYCAASGYGWFWYDYWGHGTQVTVSS” the entry was “high polyreactivity”; with “QVQLVESGGGLVQAGGSLRLSCAASGITFLPTAMGWYRQAPGKERELVAAITWRGGSTYYADAVKGRFTISRDHAKNTVYLQMNSLKREDTAVYYCGATGWQYVYYNYLWLKGGYWGQGTQVSVSS”, “high polyreactivity”.
On to “QVQLVESGGGLVQAGGSLRLSCAASGITFLTYTMGWYRQAPGKERELVAAISRSGGRTYYADSVKGRFTISRDNAKNTVYLQMNSLKPEDTAVYYCAAVSANQDFDYWGQGTQVTVSS”, for which the “polyreactivity (PSR sort gate)” value is given as “high polyreactivity”.
With “QVQLVESGGGLVQAGGSLRLSCAASGITFLYYAMGWYRQAPGKERELVAAISGGGASTYYADSVKGRFTISRDNAKNTVYLQKNSLKPEDTAVYYCAAGYRDFFRARFGYWGQGTQVTVSS”, the “polyreactivity (PSR sort gate)” value was “high polyreactivity”.
On to “QVQLVESGGGLVQAGGSLRLSCAASGITFNSYAMGWYRQAPGKERELVASITERGDSTYYADSVKGRFTLSRDNAKNTVYLQMNSLKPEDTGVYYCAAAEHLTRPSSPTQDGDHWGQGTQVTVSS”, for which the “polyreactivity (PSR sort gate)” value is recorded as “low polyreactivity”.
With “QVQLVESGGGLVQAGGSLRLSCAASGITFNSYRMVWYRQAPVKERELVAAISGSGSSTYYADSVKGRFTISRDNAKNTVYLQMNSLKPEDTGVYYCADVSGKNVDFVWVLAYPRLDYWGQGTQVTVSS” the entry was “low polyreactivity”.
Consider “QVQLVESGGGLVQAGGSLRLSCAASGITFNVYAMAWYRQAPGKERELVATITGSGGSTYYADSVKGRFTISRDNAKNTVYLQMNSQKPEDTAVYYCNAYYYFWGQGSQVTVSS”, for which the “polyreactivity (PSR sort gate)” value is “low polyreactivity”.
For “QVQLVESGGGLVQAGGSLRLSCAASGITFNYYAMGWYRQAPGKEREFVAAITRSGGRTYYADSVKGRFTISRDNAKNTVYLQMNSLKPEDTAVYYCAAGYYILYIWKFDYWGQGTQVTVSS” the value was “high polyreactivity”; for “QVQLVESGGGLVQAGGSLRLSCAASGITFNYYAMGWYRQAPGKERELVAVISSSGGRTYYADSVKGRFTISRDNAKNTVYFQMNSLKPEDTAVYYCGAGCSVAFYYWGQGTQVTVSS”, “high polyreactivity”.
With “QVQLVESGGGLVQAGGSLRLSCAASGITFNYYTMVWYRQAPGKERELVARITISGGSTYYADSVKGRFTISRDNAKNTVDFQMYSLKPEDTAVYYCNVRLYGYRHDYWGQGTQVTVSS” the entry was “high polyreactivity”.
With “QVQLVESGGGLVQAGGSLRLSCAASGITFPANAMGWYRQAPGKERELVAAISTSGGSTYYADSVKGRFTISRDNAKNTVYLQMNSLKPEDTAVYYCAATIYPYYSLYSHYYWGQCTQVTVSS” the entry was “high polyreactivity”; with “QVQLVESGGGLVQAGGSLRLSCAASGITFPDYDMGWYRQAPGKERELVAAITYRSGSTYYADSVKGRFTISRDNAKNTVYLQMNSLKPEDTAVYYCAATVRGVGYRYYYWGQGTQVTVSS”, “high polyreactivity”.
In the case of “QVQLVESGGGLVQAGGSLRLSCAASGITFPFYAMGWYRQAPGKERELVAGITSGGSTYYADSVKGRFTISRDNAKNTVYLQMNSLKPEDTAVYYCAAPFYRQSLIEYDFWGQGTQVTVSS”, the “polyreactivity (PSR sort gate)” value was “high polyreactivity”.
For the sequence “QVQLVESGGGLVQAGGSLRLSCAASGITFPGNVMGWYRQAPGKERELVAAISTSGGSTYYADSVKGRFTISRDNAKNTVYLQMNSLKPEDTAVYYCARQYIRSSYGYWGQGTQVTVSS”, the “polyreactivity (PSR sort gate)” value is “low polyreactivity”.
With “QVQLVESGGGLVQAGGSLRLSCAASGITFPGYAMGWYRQAPGKERELVAAIDRSGDGTYYADSVKGRFTISRDNAKNTVYLQMNSLKPEDPAVYYCAKDNYPNHSTVLAVIYDYWGQGTQVTVSS” the entry was “low polyreactivity”; with “QVQLVESGGGLVQAGGSLRLSCAASGITFPGYAMGWYTQAPGKERELVAVIRKSGTSTYYADSVKGRFTISRDNAKNTVYLQMNSLKPEDTAVYYCAAGGPSTLDDYWGQGTQVTVSS”, “low polyreactivity”.
With “QVQLVESGGGLVQAGGSLRLSCAASGITFPLYVLGWYRQAPGKDRELVAAISASGGSTYADSVKGRFTISRDNAKNTVYFQMNSLKTEVTAVYYCNADVYVGYEYDYWGQGTQVTVSS” the entry was “low polyreactivity”.
For “QVQLVESGGGLVQAGGSLRLSCAASGITFPRNAMGWYRQAPGKERELVAAISARGGNTYYADSVKGRFTISRDNSKNNVYLQMNSLKPEDTAVYFCNALGSSYSEPSEYDYWGQGTQVTVSS” the value was “low polyreactivity”; for “QVQLVESGGGLVQAGGSLRLSCAASGITFPRYAMGGYRPAPGKERELVATITRTGRTNYADSVKGRFTISRDNAKNTVYLQKNSLKPEDTPVYYCAARNRRERKGKMDYWGQGTQVTVSS”, “high polyreactivity”.
As to “QVQLVESGGGLVQAGGSLRLSCAASGITFPWYAMGWYRQAPGKERELVAAISSDADTYYADSVKGRFTISRDNAKNTVYLQMISLKPEDTAVYYCAAETFDYSRGYTAMGYWGQGTQVTVSS”, the “polyreactivity (PSR sort gate)” value is “high polyreactivity”.
For “QVQLVESGGGLVQAGGSLRLSCAASGITFPYYAMGWDRQAPGKERELVAAISSSGGSTYYADSVKGRFTISRDNAKNTVYLQMNSLKPEDTAVYYCAAQRYINYDYWGQGTQVTVSS” the value was “high polyreactivity”; for “QVQLVESGGGLVQAGGSLRLSCAASGITFPYYAMGWYRQAPGKERELVAAISSGGSTNYADSVKGRFTISRDNAKNTVYLQMNSLKPEDTAVYYCNADVRSYFYDYWGQGTQVTVSS”, “low polyreactivity”.
Regarding “QVQLVESGGGLVQAGGSLRLSCAASGITFQLYAMGWYRQAPGKERELVAAIDASGGITNYADSVKGRFTISRDNAKNTVYLQMNSLKPEDTAVYYCASFFKLRYRYQFWRYGFGYWGQGTQVTVSS”, the “polyreactivity (PSR sort gate)” value is “high polyreactivity”.
For “QVQLVESGGGLVQAGGSLRLSCAASGITFQWYTMGWYRQAPGKERELVATISSGGSTNYADSVKGRFTISRDNAKNTVYLQMNSLKPEDTPVYYCAAYDYISSTYFLDEYWGQGTQVTVSS”, the “polyreactivity (PSR sort gate)” value is listed as “low polyreactivity”.
With “QVQLVESGGGLVQAGGSLRLSCAASGITFQYNAMGWYRQAPGKERELVATIRRGGITKYADSVKGRFTISRDNAKNTVSLQMNSLKPEDSAVYYCAADFWYYQYPYGGGGYWGQGTQVTVSS” the entry was “low polyreactivity”; with “QVQLVESGGGLVQAGGSLRLSCAASGITFQYYAMGWYRQAPGKERELVAAITKRGGSTYYADSVKGRFTISRDNAKNTVYLQMTSLKPEETAVYYCAADLGGNSRLDYWGQGTQVTVSS”, “high polyreactivity”.
With “QVQLVESGGGLVQAGGSLRLSCAASGITFRCNAMGWYRQAPGKERELVASITGGTDTYYADSVKGRFTISRDNAKKTVYLQMNSLKPEASAVYYCAAPSNQYFRYKRRYYYWGQGTQVTVSS”, the “polyreactivity (PSR sort gate)” value is on record as “high polyreactivity”.
For “QVQLVESGGGLVQAGGSLRLSCAASGITFRFNAMGWYRQAPGKEREFVAAITYSGDSTYYADSVKGRFTISRDNAKNTVYLQMNSLKPEDTAVYYCAADYYAISRRIFYYWGQGTQVTVSS” the value was “low polyreactivity”; for “QVQLVESGGGLVQAGGSLRLSCAASGITFRGYAMGWYRQAPGKERELVAAISSRGGSTYYADSVKGRFTISRDNAKNTVYLQMNSLKPEDTAVYYCNAVSGLYFTYTYDYWGQGTQVTVSS”, “high polyreactivity”; for “QVQLVESGGGLVQAGGSLRLSCAASGITFRGYAMGWYRQAPGTERELVAAITGSGTSTYADSVKGRFTISRDNAKNTVYLQMNILKPEDTAVYYCAADTYDPFYYGYGYWGQGTQVTVSS”, “low polyreactivity”.
On to “QVQLVESGGGLVQAGGSLRLSCAASGITFRGYARGWYRQAPGKERELVASITNTDSTYYADSVKGRFTISRDNAKNTVYLQMNSLKPEDTAVYYCAARRGRKYGYWGQGTQVTVSS”, for which the “polyreactivity (PSR sort gate)” value is given as “high polyreactivity”.
For “QVQLVESGGGLVQAGGSLRLSCAASGITFRRYAMGWYRQAPGKERELVAAISRSGGSTRYADSVKGRFTISRDNAKNTVYLLMNSLKPEDTAVYYCAADGVPGRAVDYEYWGQGTQVTVSS” the value was “high polyreactivity”; for “QVQLVESGGGLVQAGGSLRLSCAASGITFRRYAMGWYRQAPGKERELVAAITSSGGSTYYADSVKGRFSISRDNAKNTVYLQMNSLKPEDTAVYYCAARAYRVNWSSWYRSGYDYWGQGTQVTVSS”, “high polyreactivity”.
With “QVQLVESGGGLVQAGGSLRLSCAASGITFRTYAMGWYRQAPGKERELVAGIRTRTGSTYYADSVKGRFTISRDNAKNTVYLQMNSLKPEDTAVYYCAAKGSGYYGRQRIYSYTYDYWGQGTQVTVSS” the entry was “high polyreactivity”; with “QVQLVESGGGLVQAGGSLRLSCAASGITFRVYVMGGYRQAPGKERELVAAITSGTSTYYADSVKGRFTISRDNAKNTVYLQMNSLKPEDTAVYYCAADWDLFYAVVGFDFDYWGQGTQVTVSS”, “low polyreactivity”.
For “QVQLVESGGGLVQAGGSLRLSCAASGITFRWYAMGWYRQAPGKERELVAAISSSGGSTYYADSVKGRFTISRDNAKNTVYLQMNSLKPEDTAVYYCAAYTSYASDYWGQGTQVTVSS” the value was “high polyreactivity”.
